Assay results from article PMC2928003.
Several values for one entry are separate records, joined by “and”; a condition that tells them apart may be missing. Equal values may be shown once.

Legend:
the DH–PH domains = assay: pull-down
[1] = molecular target: βPIX DH–PH domain (aa 100–400), His-tagged (UniProt O55043); assay: SPR
[2] = molecular target: Vav1 DH–PH domain (aa 195–508), His-tagged (UniProt P15498); assay: SPR
[3] = molecular target: Tiam1 DH–PH domain (aa 1048–1406), His-tagged (UniProt Q60610); assay: SPR
[4] = molecular target: nonmuscle myosin IIB (rat (endogenous in PC12 and rat brain)) (UniProt Q9JLT0); assay: co-IP
[5] = molecular target: nonmuscle myosin IIB (mouse (endogenous in NIH3T3)) (UniProt Q61879); assay: co-IP
[6] = molecular target: nonmuscle myosin IIA (mouse (endogenous in NIH3T3)) (UniProt Q8VDD5); assay: co-IP
Chain of nonmuscle myosin IIA (mouse (endogenous in NIH3T3)) (Q8VDD5 whole entry): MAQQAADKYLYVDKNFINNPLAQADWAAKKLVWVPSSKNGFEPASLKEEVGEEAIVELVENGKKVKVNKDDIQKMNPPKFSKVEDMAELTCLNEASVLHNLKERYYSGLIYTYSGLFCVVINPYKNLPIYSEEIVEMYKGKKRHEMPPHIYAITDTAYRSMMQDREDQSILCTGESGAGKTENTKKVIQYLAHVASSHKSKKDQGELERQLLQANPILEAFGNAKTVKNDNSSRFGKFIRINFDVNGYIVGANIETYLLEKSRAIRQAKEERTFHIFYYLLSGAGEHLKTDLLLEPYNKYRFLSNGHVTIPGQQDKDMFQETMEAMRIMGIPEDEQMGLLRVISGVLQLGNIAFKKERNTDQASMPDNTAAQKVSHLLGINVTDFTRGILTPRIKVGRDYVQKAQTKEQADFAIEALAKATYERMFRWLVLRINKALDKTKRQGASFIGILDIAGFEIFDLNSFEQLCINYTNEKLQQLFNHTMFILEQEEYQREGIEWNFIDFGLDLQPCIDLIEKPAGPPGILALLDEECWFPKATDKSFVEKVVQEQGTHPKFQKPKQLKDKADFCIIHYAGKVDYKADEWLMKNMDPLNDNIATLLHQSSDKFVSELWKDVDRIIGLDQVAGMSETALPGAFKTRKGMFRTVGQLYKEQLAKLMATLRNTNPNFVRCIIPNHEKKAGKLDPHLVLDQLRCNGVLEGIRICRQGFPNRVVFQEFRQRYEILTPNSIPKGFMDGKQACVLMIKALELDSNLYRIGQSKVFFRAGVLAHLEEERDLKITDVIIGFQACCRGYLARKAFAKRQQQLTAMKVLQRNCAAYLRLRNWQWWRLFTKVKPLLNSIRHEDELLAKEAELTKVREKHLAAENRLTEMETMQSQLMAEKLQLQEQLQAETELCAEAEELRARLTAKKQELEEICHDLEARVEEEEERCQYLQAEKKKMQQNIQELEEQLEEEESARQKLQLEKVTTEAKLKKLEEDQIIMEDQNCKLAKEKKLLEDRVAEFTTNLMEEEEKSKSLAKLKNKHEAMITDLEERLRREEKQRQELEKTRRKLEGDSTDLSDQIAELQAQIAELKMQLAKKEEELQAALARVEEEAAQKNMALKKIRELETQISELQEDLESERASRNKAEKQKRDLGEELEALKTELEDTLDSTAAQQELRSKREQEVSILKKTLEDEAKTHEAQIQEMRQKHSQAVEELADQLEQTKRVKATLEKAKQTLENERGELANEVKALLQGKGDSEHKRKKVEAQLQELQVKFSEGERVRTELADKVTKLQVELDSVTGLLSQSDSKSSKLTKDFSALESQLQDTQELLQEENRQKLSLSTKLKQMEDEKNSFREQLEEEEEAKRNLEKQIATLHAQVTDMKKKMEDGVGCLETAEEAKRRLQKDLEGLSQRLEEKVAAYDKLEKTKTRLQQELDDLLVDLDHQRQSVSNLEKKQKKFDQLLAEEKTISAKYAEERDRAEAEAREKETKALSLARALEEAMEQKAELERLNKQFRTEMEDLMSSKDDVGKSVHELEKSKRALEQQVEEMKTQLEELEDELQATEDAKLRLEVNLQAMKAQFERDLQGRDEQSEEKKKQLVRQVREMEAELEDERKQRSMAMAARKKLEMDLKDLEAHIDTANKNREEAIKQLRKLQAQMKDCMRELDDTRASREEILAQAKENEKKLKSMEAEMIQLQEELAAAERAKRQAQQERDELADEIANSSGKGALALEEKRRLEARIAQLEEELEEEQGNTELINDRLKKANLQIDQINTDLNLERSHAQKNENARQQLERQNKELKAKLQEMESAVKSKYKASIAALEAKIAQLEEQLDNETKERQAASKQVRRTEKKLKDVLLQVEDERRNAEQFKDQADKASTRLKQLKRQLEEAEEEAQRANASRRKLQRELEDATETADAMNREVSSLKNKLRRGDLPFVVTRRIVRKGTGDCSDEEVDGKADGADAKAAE

Chain of nonmuscle myosin IIB (rat (endogenous in PC12 and rat brain)) (Q9JLT0 whole entry): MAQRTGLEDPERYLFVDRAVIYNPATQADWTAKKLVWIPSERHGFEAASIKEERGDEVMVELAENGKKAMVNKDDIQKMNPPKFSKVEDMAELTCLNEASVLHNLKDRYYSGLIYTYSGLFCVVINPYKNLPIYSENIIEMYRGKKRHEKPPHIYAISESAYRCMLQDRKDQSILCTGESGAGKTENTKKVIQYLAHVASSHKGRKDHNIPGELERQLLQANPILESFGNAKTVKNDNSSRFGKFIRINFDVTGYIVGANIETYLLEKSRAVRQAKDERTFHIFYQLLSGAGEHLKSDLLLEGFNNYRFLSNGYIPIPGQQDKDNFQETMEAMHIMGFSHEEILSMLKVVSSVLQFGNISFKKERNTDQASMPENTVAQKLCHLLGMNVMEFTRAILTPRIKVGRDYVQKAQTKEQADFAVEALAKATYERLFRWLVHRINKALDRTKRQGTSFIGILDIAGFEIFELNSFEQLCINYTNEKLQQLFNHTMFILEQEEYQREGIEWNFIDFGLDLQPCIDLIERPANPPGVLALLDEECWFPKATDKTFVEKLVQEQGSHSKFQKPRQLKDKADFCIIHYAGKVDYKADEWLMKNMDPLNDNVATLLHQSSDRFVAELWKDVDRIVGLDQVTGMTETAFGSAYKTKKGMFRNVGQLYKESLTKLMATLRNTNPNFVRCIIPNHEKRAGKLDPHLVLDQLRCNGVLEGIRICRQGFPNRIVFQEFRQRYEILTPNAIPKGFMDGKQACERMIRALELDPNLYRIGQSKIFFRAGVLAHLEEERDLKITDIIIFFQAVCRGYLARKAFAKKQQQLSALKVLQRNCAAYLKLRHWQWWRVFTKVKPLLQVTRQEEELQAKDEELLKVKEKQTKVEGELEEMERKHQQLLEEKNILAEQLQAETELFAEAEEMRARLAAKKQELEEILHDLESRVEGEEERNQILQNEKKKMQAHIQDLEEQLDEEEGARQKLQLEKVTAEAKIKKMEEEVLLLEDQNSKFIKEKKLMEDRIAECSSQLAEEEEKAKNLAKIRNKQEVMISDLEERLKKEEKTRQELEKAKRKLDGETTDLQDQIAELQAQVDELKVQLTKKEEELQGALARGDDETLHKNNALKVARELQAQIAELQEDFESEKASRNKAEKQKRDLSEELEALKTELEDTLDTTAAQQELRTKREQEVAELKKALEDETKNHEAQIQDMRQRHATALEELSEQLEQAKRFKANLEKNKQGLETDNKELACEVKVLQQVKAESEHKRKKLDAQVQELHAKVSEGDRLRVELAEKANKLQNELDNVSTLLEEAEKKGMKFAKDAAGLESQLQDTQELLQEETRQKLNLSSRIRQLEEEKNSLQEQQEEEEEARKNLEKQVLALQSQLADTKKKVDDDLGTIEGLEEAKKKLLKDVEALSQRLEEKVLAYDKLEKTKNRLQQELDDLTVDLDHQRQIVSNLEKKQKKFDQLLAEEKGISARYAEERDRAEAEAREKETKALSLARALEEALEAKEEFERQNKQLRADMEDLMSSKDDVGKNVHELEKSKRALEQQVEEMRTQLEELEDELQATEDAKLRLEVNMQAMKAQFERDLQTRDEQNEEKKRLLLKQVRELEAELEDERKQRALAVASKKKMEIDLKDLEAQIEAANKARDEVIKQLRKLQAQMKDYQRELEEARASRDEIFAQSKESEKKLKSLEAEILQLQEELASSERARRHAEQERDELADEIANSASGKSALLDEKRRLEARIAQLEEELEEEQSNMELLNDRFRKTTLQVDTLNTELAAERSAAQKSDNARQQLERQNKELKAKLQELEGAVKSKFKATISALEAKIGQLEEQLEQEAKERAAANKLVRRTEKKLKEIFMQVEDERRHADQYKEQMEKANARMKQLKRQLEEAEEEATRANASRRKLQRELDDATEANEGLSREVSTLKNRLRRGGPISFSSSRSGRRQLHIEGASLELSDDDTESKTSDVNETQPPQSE
Chain of nonmuscle myosin IIB (mouse (endogenous in NIH3T3)) (Q61879 whole entry): as the sequence (Q9JLT0 whole entry) above, with K150M, K170E, T452A, N652T, G933E, M1304I, G1389S, E1969D counted along it
Chain of βPIX DH–PH domain (aa 100–400), His-tagged (O55043 100-400): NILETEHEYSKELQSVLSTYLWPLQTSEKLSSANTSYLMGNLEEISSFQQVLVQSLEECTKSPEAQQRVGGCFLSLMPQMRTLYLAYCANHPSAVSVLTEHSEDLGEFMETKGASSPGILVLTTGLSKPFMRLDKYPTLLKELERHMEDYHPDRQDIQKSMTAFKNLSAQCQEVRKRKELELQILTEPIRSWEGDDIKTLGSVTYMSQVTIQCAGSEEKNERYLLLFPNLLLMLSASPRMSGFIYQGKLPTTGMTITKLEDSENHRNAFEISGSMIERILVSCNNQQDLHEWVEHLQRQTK
Chain of Tiam1 DH–PH domain (aa 1048–1406), His-tagged (Q60610 1048-1406): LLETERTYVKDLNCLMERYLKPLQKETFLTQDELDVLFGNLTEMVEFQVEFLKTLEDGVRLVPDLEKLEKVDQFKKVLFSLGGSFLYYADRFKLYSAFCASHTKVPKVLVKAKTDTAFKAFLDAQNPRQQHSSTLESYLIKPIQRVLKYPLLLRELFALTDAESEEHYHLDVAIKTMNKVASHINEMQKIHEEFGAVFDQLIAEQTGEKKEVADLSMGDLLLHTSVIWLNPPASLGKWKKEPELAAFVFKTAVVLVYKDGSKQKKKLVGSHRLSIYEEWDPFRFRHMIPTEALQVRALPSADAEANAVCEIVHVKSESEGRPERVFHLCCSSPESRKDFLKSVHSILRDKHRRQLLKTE
Chain of Vav1 DH–PH domain (aa 195–508), His-tagged (P15498 195-508): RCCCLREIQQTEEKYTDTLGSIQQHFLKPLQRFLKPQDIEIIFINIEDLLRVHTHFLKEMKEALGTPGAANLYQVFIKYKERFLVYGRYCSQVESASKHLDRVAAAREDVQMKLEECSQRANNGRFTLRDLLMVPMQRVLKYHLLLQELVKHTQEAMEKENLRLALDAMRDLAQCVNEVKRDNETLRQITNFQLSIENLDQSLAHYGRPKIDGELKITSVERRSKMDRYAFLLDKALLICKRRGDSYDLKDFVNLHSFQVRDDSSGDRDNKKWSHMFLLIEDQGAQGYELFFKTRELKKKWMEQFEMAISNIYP

Which results are given for “skeletal muscle myosin II (from UniProt Q28641 1-1938; P02602 1-192; P02608 1-170) (complex)”?
fold of association with F-actin over without F-actin (the DH–PH domains): 2 fold and 4 fold; Kd [1]: 260 nM; Kd [2]: 390 nM; Kd [3]: 290 nM

With “kalirin, P97924 1-2959 (natural protein)” as the substance, how does the percent of the GEF of the lysate found in the MIIB IP [4] read?
The percent of the GEF of the lysate found in the MIIB IP was 5.6%.

How did the percent of the GEF of the lysate found in the MIIB IP [5] turn out when Dbl (natural protein) was run?
Its percent of the GEF of the lysate found in the MIIB IP is 1.3%.

Which percent of the GEF of the lysate found in the MIIB IP [4] does the source give for Tiam1 (natural protein) here?
The percent of the GEF of the lysate found in the MIIB IP was 1.6%.

What does the source list for Trio, Q0KL02 1-3102 (natural protein)?
percent of the GEF of the lysate found in the MIIA IP [6]: 10.7%; percent of the GEF of the lysate found in the MIIB IP [5]: 8.7%

With LARG (natural protein) as the substance, how does the percent of the GEF of the lysate found in the MIIB IP [4] read?
The percent of the GEF of the lysate found in the MIIB IP was 1%.

For FGD1 (natural protein), which percent of the GEF of the lysate found in the MIIB IP [4] is on record?
Its percent of the GEF of the lysate found in the MIIB IP is 8.1%.
